One experiment concerns the target FGFR1 (Homo sapiens) (UniProt P11362). As to conditions: cited from earlier work.
The target of the next experiment is FGFRL1 (Homo sapiens) (UniProt Q8N441). As to conditions: cited from earlier work.
The target of a further experiment is FGFR2 (Homo sapiens) (UniProt P21802). As to conditions: cited from earlier work.
The target of experiment [1] is Human FGF8b (fibroblast growth factor 8, isoform b) (human). As to the kind of experiment: SPR; Biacore X100; FGF8b covalently attached (amine coupling, 295 RU) to a matrix-free C1 chip; FGFRL1 polypeptides injected at 3.125-50 nM in HBS-EP+ (10 mM HEPES, 150 mM NaCl, 3 mM EDTA, 0.05% P20, pH 7.4), 30 μL/min, 120 s association, 240 s dissociation; global kinetic fit to a 1:1 model. A general note: Surface plasmon resonance follows binding to a sensor surface in real time, without labels.

The next experiment concerns the target T1, FGFRL1 Ig2 (Homo sapiens, UniProt Q8N441).
T1 chain: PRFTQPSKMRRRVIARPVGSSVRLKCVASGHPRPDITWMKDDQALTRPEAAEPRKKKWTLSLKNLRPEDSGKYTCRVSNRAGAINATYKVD
As to the kind of experiment: SPR.

For eight molecules, Kd, koff and kon results are on record in article PMC7600612 (2020).

Sequence of FGFR2 (Homo sapiens) (P21802 22-377): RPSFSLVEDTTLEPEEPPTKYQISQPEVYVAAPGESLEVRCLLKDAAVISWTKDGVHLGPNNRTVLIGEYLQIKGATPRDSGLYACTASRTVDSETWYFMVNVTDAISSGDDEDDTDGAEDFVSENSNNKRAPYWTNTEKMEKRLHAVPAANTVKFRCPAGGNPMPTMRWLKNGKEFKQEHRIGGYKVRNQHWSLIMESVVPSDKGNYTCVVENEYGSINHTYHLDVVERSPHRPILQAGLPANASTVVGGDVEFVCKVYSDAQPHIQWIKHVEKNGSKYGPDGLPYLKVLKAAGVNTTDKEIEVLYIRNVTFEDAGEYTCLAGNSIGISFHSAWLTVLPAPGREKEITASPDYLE
Sequence of FGFRL1 (Homo sapiens) (Q8N441 25-378): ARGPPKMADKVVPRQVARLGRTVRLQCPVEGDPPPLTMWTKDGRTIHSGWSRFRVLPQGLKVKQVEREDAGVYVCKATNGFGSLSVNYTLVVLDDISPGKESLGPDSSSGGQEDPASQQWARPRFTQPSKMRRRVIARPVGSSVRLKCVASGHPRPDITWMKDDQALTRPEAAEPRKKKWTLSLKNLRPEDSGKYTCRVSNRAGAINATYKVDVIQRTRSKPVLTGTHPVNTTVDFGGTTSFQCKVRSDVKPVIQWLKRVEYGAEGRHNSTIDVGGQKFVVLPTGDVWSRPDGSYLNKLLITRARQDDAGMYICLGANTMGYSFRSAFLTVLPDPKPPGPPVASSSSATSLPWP
Sequence of FGFR1 (Homo sapiens) (P11362 22-822 P252R): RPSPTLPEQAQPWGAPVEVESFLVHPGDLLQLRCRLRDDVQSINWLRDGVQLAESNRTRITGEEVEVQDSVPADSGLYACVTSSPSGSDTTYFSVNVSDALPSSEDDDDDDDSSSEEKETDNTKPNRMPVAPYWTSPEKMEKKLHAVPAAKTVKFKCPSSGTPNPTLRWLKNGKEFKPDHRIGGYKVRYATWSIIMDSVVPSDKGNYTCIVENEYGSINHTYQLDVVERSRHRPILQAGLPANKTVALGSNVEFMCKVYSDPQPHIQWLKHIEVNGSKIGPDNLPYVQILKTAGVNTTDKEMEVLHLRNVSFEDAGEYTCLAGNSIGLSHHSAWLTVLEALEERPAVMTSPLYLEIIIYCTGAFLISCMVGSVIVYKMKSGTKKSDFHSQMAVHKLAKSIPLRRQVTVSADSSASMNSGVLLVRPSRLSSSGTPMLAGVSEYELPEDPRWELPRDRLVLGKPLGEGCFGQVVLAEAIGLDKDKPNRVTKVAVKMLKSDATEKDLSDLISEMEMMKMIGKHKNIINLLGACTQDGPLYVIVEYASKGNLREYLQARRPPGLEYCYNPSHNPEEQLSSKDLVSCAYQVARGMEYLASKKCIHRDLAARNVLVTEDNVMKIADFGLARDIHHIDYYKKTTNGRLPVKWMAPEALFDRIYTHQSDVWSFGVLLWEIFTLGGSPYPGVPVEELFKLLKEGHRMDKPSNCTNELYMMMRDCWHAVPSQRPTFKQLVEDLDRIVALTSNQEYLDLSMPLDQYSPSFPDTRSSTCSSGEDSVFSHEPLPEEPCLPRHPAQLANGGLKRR

Broadly, the Kd is the concentration at which binding is half-saturated. For FGF2 (from UniProt P09038), in the experiment with FGFR1 (Homo sapiens), the Kd was 24 nM.

Turning to FGF3 (from UniProt P11487), the Kd with FGFRL1 (Homo sapiens) is 4.2 nM.

For FGF8 (from UniProt P55075), the Kd with FGFR2 (Homo sapiens) was 130 nM.

By koff is commonly meant the first-order rate constant of dissociation. A high value points to a short-lived complex. As a reminder, the kon is the rate constant with which the complex forms. Higher therefore signals fast association. Turning to “FGFRL1 Ig2 construct (from UniProt Q8N441 25-26; Q8N441 118-239) (domain or fragment)”, in experiment [1], the Kd was determined as 1.73 nM, the koff worked out at 0.0092 s⁻¹ and the kon is 5.32e+06 M⁻¹ s⁻¹.

Consider “FGFRL1 Ig12 construct (from UniProt Q8N441 25-239) (domain or fragment)”, for which, in experiment [1], the Kd stood at 1.94 nM, the koff came to 0.0107 s⁻¹ and the kon was 5.49e+06 M⁻¹ s⁻¹.

As to “FGFRL1 Ig23 construct (from UniProt Q8N441 25-26; Q8N441 118-357) (domain or fragment)”, in experiment [1], the Kd was 2.07 nM, the koff was found to be 0.000806 s⁻¹ and the kon was determined as 390000 M⁻¹ s⁻¹.

In experiment [1], “FGFRL1 Ig123 (complete extracellular domain of human fibroblast growth factor receptor-like protein 1) (from UniProt Q8N441 25-359) (domain or fragment)” gave a Kd of 3.37 nM, a koff of 0.00126 s⁻¹ and a kon of 373000 M⁻¹ s⁻¹.

B1: FGF8 (protein)
chain: QEGPGRGPALGRELASLFRAGREPQGVSQQHVREQSLVTDQLSRRLIRTYQLYSRTSGKHVQVLANKRINAMAEDGDPFAKLIVETDTFGSRVRVRGAETGLYICMNKKGKLIAKSNGKGKDCVFTEIVLENNYTALQNAKYEGWYMAFTRKGRPRKGSKTRQHQREVHFMKRLPRGHHTTEQSLRFEFLNYPPFTRSLRGSQRTWAPEPR
B1 returned a Kd with FGFRL1 Ig2 of 1.7 nM.
